From publication PMC6269424 come the findings set out here.

Series [1] can be described thus: western blot of adipose tissue. Conditions: glycan lost; control: HFD-fed Con (OGTflox) mice.
A short description of series [2]: phospho-PPARγ western blot of adipose tissue. The settings on record: glycan lost; control: HFD-fed Con (OGTflox) mice.

B1: PPARγ2: adipocyte-specific OGT knockout (FKO) (protein)
parent chain: MGETLGDSPVDPEHGAFADALPMSTSQEITMVDTEMPFWPTNFGISSVDLSVMEDHSHSFDIKPFTTVDFSSISAPHYEDIPFTRADPMVADYKYDLKLQEYQSAIKVEPASPPYYSEKTQLYNRPHEEPSNSLMAIECRVCGDKASGFHYGVHACEGCKGFFRRTIRLKLIYDRCDLNCRIHKKSRNKCQYCRFQKCLAVGMSHNAIRFGRMPQAEKEKLLAEISSDIDQLNPESADLRALAKHLYDSYIKSFPLTKAKARAILTGKTTDKSPFVIYDMNSLMMGEDKIKFKHITPLQEQSKEVAIRIFQGCQFRSVEAVQEITEYAKNIPGFINLDLNDQVTLLKYGVHEIIYTMLASLMNKDGVLISEGQGFMTREFLKNLRKPFGDFMEPKFEFAVKFNALELDDSDLAIFIAVIILSGDRPGLLNVKPIEDIQDNLLQALELQLKLNHPESSQLFAKVLQKMTDLRQIVTEHVQLLHVIKKTETDMSLHPLLQEIYKDLY
For B1, in series [1], the expression_or_secretion result is on record as “decreases”. Besides, in series [2], the “other: Ser112 phosphorylation” value was “increases”.
